Patent US20110250202A1

B1: 2G7 antibody (antibody, V domains shown)
VH: EVQLQQSGAELVKPGASVKLSCTASGFNIKDYFIHWVNQRTKQGLEWIGRIDPEDGETKYAPKFQGKATLTADTTSNTADLQLSSLTSEDTAVYYCVLYYSRSFDYWGQGTTLTVSS
VL: QNVLTQSPAIMSASPGEKVTMTCSASSSVSYMHWYQQKSGTSPKRWIYDTSKLASGVPARFSGSGSGTSYSLTISSMEAEDAATYYCQQWSSNPLTFGAGTKLELKR
B2: 3B12 antibody (antibody, V domains shown)
VH: EVQLQQSGAEFVKPGASVKLSCRVSGFNIKDYYINWVKQRTEQGLEWIGRIDPEDGETKYAPKFQGKATITADTSSNTANLHLSSLTSADTAVYYCASSGYAFAWFLYWGQGTLVTVSA
VL: DILLTQSPAILSVSPGERVSFSCRASQSIGTSIHWYQQRTNGSPRLLIKYASESISGIPSRFSGSGSGTDFTLSINSVESEDIADYYCQQSNRWPFTFGSGTKLEIKR
B3: 2B2 antibody (antibody, V domains shown)
VH: VQLQQSGAEFVKRPGASVKLSCRVSGFNIKDYYINWVKQRTEQGLEWIGRIDPEDGETKYAPKFQGKATITADTSSNTANLHLSSLTSADTAVYYCASSGYAFAWFLYWGQGTLVTVSA
VL: B2 VL

How the values were obtained:
[1] = biological target: recombinant penicillin binding protein 2a (PBP2a) (Staphylococcus aureus); assay: SPR (BIACORE), rPBP2a coupled on CM5 chip, antibody flowed at 0 to 5 nM; culture supernatant 2
[2] = biological target: recombinant penicillin binding protein 2a (PBP2a) (Staphylococcus aureus); assay: SPR (BIACORE), rPBP2a coupled on CM5 chip, antibody flowed at 0 to 5 nM; purified antibody
[3] = biological target: recombinant penicillin binding protein 2a (PBP2a) (Staphylococcus aureus); assay: SPR (BIACORE), rPBP2a coupled on CM5 chip, antibody flowed at 0 to 5 nM; culture supernatant 1

Binder | Kd [1] | Kd [2] | Kd [3]
B1 | 0.0022 pM | 1.18 pM | 0.204 pM
B2 | 6050 pM | 176 pM | 4850 pM
B3 | 2150 pM | 359 pM | –
